In patent US20240254205A1 (UNIVERSITY OF ROCHESTER, published 2024):
Like-named read-outs stand apart in the source and are kept apart here.

What was measured:
[1] = biological target: T1, NA of B/Lee/1940 on infected MDCK cells (influenza B virus B/Lee/1940, UniProt P03474 1-466); experiment: immunofluorescence on infected MDCK cells, hMAb at 1 µg/ml
T1 construct: whole, on cells

[2] = biological target: T2, recombinant IBV NA protein B/Hong Kong/330/2001 (Victoria lineage) (influenza B virus B/Hong Kong/330/2001)
[3] = biological target: T2, recombinant IBV NA protein B/Hong …; experiment: avidity ELISA with urea, hMAb at 1 µg/ml
[4] = biological target: T2, recombinant IBV NA protein B/Hong …; remark: listed apart in the source
[5] = biological target: T2, recombinant IBV NA protein B/Hong …; experiment: surface plasmon resonance, antibody on the chip, NA flowed over
[6] = biological target: T1, NA of B/Lee/1940 on infected MDCK cells; experiment: immunofluorescence (IFA) on infected MDCK cells

B1: 1086C12 (antibody, V domains shown)
VH: VQLVESGGGVVQPGRSLRLSCVASGFSLSTYGMLWVRQAPGKGLVWVALISYEEGSNKKYADSVKGRFTISRDNSRNTLYLQMSSLTSDDTGVYYCARDAGCDSVGYYPGRLWGQGTLVTVSS
VL: QSVLTQPPSASGTPGQTVTISCSGTSSNIGSNFVYWYQQLPGTAPKLLIFRNNQRPSGVPDRFSGSKSGTSASLAVSGLRSEDEAEYYCAAWDDSLSGHLVFGGGTKLTVL
binding result [1]: binds
EC50 (read off the curve) [2]: ~0.05 µg/mL
binding activity maintained in 8 M urea [3]: > 75%

B2: 1092E10 (antibody, V domains shown)
VH: EVQLVESGGGSVKPGGSLRLSCAASGFTFTNSWMSWVRQAPGKGLEWVGRIKSKSDGGTTDYAAPVKGRFSISRDDSKSTLFLQMNSLKTEDTAVYYCSAAPFTESNGYKSWDYLYGMDVWGQGTTVTVSS
VL: SYELTQPPSVSVSPGQTATITCSGDKLGDKFASWYQQQPGQSPVLVIYQHTKRPSGIPERFSGSISGSTATLTISGTQAVDEADYYCQAWDSNSYVFGAGTKVTVL
notes: also called 1092E01
binding result [1]: binds
EC50 (read off the curve) [2]: ~0.05 µg/mL
binding activity maintained in 8 M urea [3]: > 75%

B3: KPF2/1092D4 (antibody, V domains shown)
VH: EVQLLESGGQLVQPGGSLRLSCAVSGFTFSRYAMYWVRQAPGKGLEWVSIISGDGGVTFYADSVKGRFTISRDNSKNTLFLQMNSLRADDTAVYYCAKDNQDLDLWSGSYKGTFDDWGQGTLVTVSS
VL: NFMLTQPHSVSGSPGKTVSISCTRSSGIIASNHVQWYQQRPGSAPTTVIFEDNQRPSGVPDRFSGSIDSSSNSASLTISGLKTEDEADYYCQSYDSSRYWVFGGGTKLTVL
Kd [4]: 0.185 nM
koff [4]: 4.86e-05 s⁻¹
kon [4]: 264000 M⁻¹ s⁻¹
Kd [5]: 0.1 nM
binding result [1]: binds
EC50 (read off the curve) [2]: ~0.05 µg/mL
binding activity maintained in 8 M urea [3]: > 75%

B4: 1122C7 (antibody, V domains shown)
VH: EVQLLESGGQLVQPGGSLRLSCAVSGFTFSSYAMYWVRQSPGKGLEWVSIISGDGGVTFYADSVKGRFTISRDNSKNTLYLQMNSLRAEDTAVYYCAKDKQDLDLWSGSYKGTFDEWGQGTLVTVSS
VL: NFMLTQPHSVSGSPGKTVSISCTRSSGIIASNYVQWYQQRPGSAPTTVIFEDNQRPSGVPDRFSGSIDSSSNSASLTISGLKTEDEADYYCQSYDSSRYWVFGGGTKLTVL
binding result [1]: binds
binding activity maintained in 8 M urea [3]: > 75%

B5: 1122C6 (antibody, V domains shown)
VH: QVQLQESGPGLVKPSETLSLTCTVSGGSISSYYWSWIRQPPGKAVEWIGYIFDGGSTDYNPSLKSRVAMSVDASENQFSLKLASVTAADTAVYYCARYRVSGNYYDTPWFDPWGQGLLVTVSS
VL: SYELTQPPSLSASPGQTARITCSGDALPKQDVYWYQQKPGQAPLLVIYKDTERPSGIPERFSGSRSGTTVTLIISGVQAEDEADYYCQSAASSYGYVVFGGGTKLTVL
binding result [6]: no binding (tested: 1 µg/ml)
